In experiment [1] the target is T1, mouse SAD-A KD-UBA fragment (kinase domain and UBA domain) (mouse).
T1 chain: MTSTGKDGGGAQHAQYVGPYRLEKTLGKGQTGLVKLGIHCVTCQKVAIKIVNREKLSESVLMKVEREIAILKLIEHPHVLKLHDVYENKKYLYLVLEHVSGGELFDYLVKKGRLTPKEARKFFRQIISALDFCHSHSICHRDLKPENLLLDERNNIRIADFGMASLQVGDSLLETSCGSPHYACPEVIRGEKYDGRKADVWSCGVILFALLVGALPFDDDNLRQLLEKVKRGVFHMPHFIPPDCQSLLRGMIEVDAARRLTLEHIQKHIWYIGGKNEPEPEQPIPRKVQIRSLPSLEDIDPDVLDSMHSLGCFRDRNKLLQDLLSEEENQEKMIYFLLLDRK
Briefly: trans-inhibition of KD-UBA kinase activity, non-competitive fit (a = 0.19).

The target in experiment [2] is T1, mouse SAD-A KD-UBA fragment (kinase …). As to the kind of experiment: apparent Ki from trans-inhibition of KD-UBA kinase activity; residual activity a=0.34.
The target in experiment [3] is T2, mouse SAD-A KD-UBA fragment (kinase domain and UBA domain) (mouse).
T2 sequence (Q69Z98 whole entry, looked up): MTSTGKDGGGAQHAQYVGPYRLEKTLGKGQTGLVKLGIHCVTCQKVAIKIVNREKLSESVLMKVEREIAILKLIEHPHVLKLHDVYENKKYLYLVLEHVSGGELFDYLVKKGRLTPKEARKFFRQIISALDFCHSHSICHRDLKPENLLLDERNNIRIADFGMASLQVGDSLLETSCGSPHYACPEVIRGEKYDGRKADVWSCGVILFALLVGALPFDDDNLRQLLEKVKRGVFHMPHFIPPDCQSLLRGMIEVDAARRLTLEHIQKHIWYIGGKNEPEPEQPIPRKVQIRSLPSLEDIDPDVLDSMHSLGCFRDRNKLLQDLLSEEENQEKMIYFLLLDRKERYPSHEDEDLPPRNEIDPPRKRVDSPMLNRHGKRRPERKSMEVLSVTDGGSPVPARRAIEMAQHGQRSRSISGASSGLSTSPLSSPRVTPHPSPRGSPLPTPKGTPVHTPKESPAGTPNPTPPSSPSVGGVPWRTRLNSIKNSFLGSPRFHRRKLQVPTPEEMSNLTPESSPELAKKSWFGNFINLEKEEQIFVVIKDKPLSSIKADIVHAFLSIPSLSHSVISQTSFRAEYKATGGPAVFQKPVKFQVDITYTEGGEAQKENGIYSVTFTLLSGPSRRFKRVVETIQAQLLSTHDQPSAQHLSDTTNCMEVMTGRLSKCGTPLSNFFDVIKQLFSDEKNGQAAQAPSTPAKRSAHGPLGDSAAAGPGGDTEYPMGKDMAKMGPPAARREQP

Experiment [4] has as its target T1, mouse SAD-A KD-UBA fragment (kinase …). Briefly: trans-inhibition of KD-UBA kinase activity, non-competitive fit (a = 0.15).
For experiment [5] the target is unchanged. As to the kind of experiment: apparent Ki from trans-inhibition of KD-UBA kinase activity; residual activity a=0.19.
For experiment [6] the target is unchanged. Briefly: apparent Ki from trans-inhibition of KD-UBA kinase activity; fragment 506-653; residual activity a=0.14.

B1: mouse SAD-A AIS-KA1 fragment (residues 519-653) (domain or fragment)
chain: KKSWFGNFINLEKEEQIFVVIKDKPLSSIKADIVHAFLSIPSLSHSVISQTSFRAEYKATGGPAVFQKPVKFQVDITYTEGGEAQKENGIYSVTFTLLSGPSRRFKRVVETIQAQLLSTHDQPSAQHLSGIIPKS
As for B1, in experiment [1], the Ki turned out to be 5.85 µM.
On to KKSWFGNFINLE [AIS peptide of mouse SAD-A (residues 519-530)], for which the Ki in experiment [2] is 24.8 µM.
As to MSNLTPESSPELAKKSWFGNFINLE (domain or fragment) [chimeric protein: mouse SAD-A residues 506-530 fused to a C-terminal thioredoxin-tag], the trans-inhibition of the kinase activity of KD-UBA (10 nM) towards Cdc25C peptide; residual activity at the plateau in experiment [3] is 15%. In addition, the Ki in experiment [4] is 7.58 µM.
In the case of MSNLTPESSPELAKKSWFGNFINLE [AIS-containing peptide of mouse SAD-A (residues 506-530)], the Ki in experiment [5] is 15.1 µM.

B2: mouse SAD-A C-terminal fragment containing the sequence N terminal to KA1 (506-530) (domain or fragment)
chain: MSNLTPESSPELAKKSWFGNFINLEKEEQIFVVIKDKPLSSIKADIVHAFLSIPSLSHSVISQTSFRAEYKATGGPAVFQKPVKFQVDITYTEGGEAQKENGIYSVTFTLLSGPSRRFKRVVETIQAQLLSTHDQPSAQHLSGIIPKS
modifications: No chemistry outside the sequence. Built as residues 506-653 of the 653-residue isoform: the N-terminal limit 506 comes from the printed 506-530 segment, and the C-terminal limit 653 is inferred from the protein end, as in the 519-653 and 530-653 fragments. In 4YOM entity 2, position 2 = K519, 14 = K531 and 136 = S653; the initiator Met and the LEHHHHHH tag are left out.
With B2, the Ki in experiment [6] is 5.82 µM. This molecule yielded a trans-inhibition of the kinase activity of KD-UBA (10 nM) towards Cdc25C peptide; residual activity at the plateau in experiment [3] of 15%.

Values taken from paper PMC4686854 (2015).
